The text below walks through data of the RNAGym collection of RNA variant scans (doi:10.7554/elife.80360).

The labels stand for the following.
B1: Twister Ribozyme (parent)
chain: AACACUGCCAAUGCCGGUCCCAAGCCCGGAUAAAAGUGGAGGGGGCGG

The data set covers variants of B1. The data set is described as follows: self-cleavage, relative activity (ratio to wild type); higher = more cleavage; co-transcriptional.
For the variant AACACUGCCAAUGCCGAUCCGAAGCCCGGAUAAAAGUGGAGGGGGCGG [G17A C21G], the self-cleavage was found to be 0.073. As for AACACUGCCACUGCCGGUCUCAAGCCCGGAUAAAAGUGGAGGGGGCGG [A11C C20U], the self-cleavage is 0.91.

Take AACACUCCCAAUGCCGGUCCCAAGCCCGGAUAAAAGUGGAGGGGUCGG [G7C G45U]: the self-cleavage amounted to 0.0816. To UACACUGCCAAUGCCGGUCCCGAGCCCGGAUAAAAGUGGAGGGGGCGG [A1U A22G] belongs 0.0451; to AACACUCCCAAUGCCGGUCCCAAGCCCGGUUAAAAGUGGAGGGGGCGG [G7C A30U], 0.0697; to AACACUCCCAAUGCCGGUCCCAAGCCCGGAUAAAACUGGAGGGGGCGG [G7C G36C], 0.0549. As to AACACUGCCAAUGGCGGUCCCAAGCCCGCAUAAAAGUGGAGGGGGCGG [C14G G29C], the self-cleavage was 0.228. For the variant AACACUGCCAAUGCCGGUCGCAAGCCCGGAUAAAAGUGAAGGGGGCGG [C20G G39A], the self-cleavage came out at 0.106. For AACACUGCCAAUGCCGGUCGCAAGCCCGGAUAAAAGUGUAGGGGGCGG [C20G G39U], the self-cleavage was 0.0983.

Turning to AACACUGCCAAUGCCGGUCCCAAGCCCGGGUAAAAGUGGAGGGGGCGG [A30G], the self-cleavage amounted to 0.952. In the case of AACACUGCCAAUGCCGGUCCCAAGCCCGGAUAAAACUGGCGGGGGCGG [G36C A40C], the self-cleavage was found to be 0.15. To AACACAGCCAAUGCCGGUCCCAAGCCCGGAUAAAAGUGGAGGGGGCGA [U6A G48A] belongs 0.76; to AACACUGCCAAUGCCGGUCCCAAGCCCGGACAAAAGUGGAGGGGUCGG [U31C G45U], 0.871; to AACACUGCCAAUGCCUGUCCCAAGCCCGAAUAAAAGUGGAGGGGGCGG [G16U G29A], 0.946. As for AACACUGCCAAUUCCGGUCCCAAGCCCGGAUACAAGUGGAGGGGGCGG [G13U A33C], the self-cleavage was found to be 0.563. In the case of AACACUGCAAAUGCCGGACCCAAGCCCGGAUAAAAGUGGAGGGGGCGG [C9A U18A], the self-cleavage came out at 0.0887. Then AACACUGCCAAUGCCGGUCCCAAGCCCGGAUAUAAGUGGAGGUGGCGG [A33U G43U], with 0.421. AACACCGCCAAUGCCGGUCCCAAGCCCGGAUAAAAGUGGGGGGGGCGG [U6C A40G]: the self-cleavage stood at 0.0788.

As for GACACUGCCAAUGCCGGUCCCAAGCUCGGAUAAAAGUGGAGGGGGCGG [A1G C26U], the self-cleavage was 0.188. Turning to GACACUGCCAAUCCCGGUCCCAAGCCCGGAUAAAAGUGGAGGGGGCGG [A1G G13C], the self-cleavage stood at 0.223. Consider AACACUGCCAAUACCGGUCCCAAGCCCGGAUAAAAGCGGAGGGGGCGG [G13A U37C], for which the self-cleavage was 0.183. With AACACUGCCAAUGCCGGUUCCAAGCCCGGAUAAAAGUGGACGGGGCGG [C19U G41C], the self-cleavage was 0.104. Regarding AACACUGCCAAUGCCGGUCCCAAGCCCGGAUAAAAGGGGUGGGGGCGG [U37G A40U], the self-cleavage was 0.128.

As for AACACUGCCAAUGCCGGUCCCAAGCCCGGAUAAAAUUGGAAGGGGCGG [G36U G41A], the self-cleavage was 0.124. To AACACUGCCAAUGCCGGUCCUAAGCCCGGAUAAAAGUGGGGGGGGCGG [C21U A40G] belongs 0.0774. Regarding AACACUGCCGAUGCCGGUCCCAAGCCCGGAUAAAAGUGGAGGGGCCGG [A10G G45C], the self-cleavage is 0.639.

Regarding AUCACUGCCAAUGCCGGUGCCAAGCCCGGAUAAAAGUGGAGGGGGCGG [A2U C19G], the self-cleavage was 0.0882. As for AACACUGCCAACGCCGGUCCCUAGCCCGGAUAAAAGUGGAGGGGGCGG [U12C A22U], the self-cleavage was 0.805.

Turning to AACACUGCCAAUGCCAGUCCCAACCCCGGAUAAAAGUGGAGGGGGCGG [G16A G24C], the self-cleavage was determined as 0.0993.

AACAAUGCCAAUGCCGUUCCCAAGCCCGGAUAAAAGUGGAGGGGGCGG [C5A G17U]: the self-cleavage was determined as 0.0729. Regarding AACACUGCCAAUGCCGGUCCCAUGCCCGGAUAAAAGUGUAGGGGGCGG [A23U G39U], the self-cleavage turned out to be 0.119. AACACUGCCAAUGCCGGUCCCAAGCCCGGAUAGAAUUGGAGGGGGCGG [A33G G36U]: the self-cleavage is 0.256. Then AAGACUGCCAAUGCCGGUUCCAAGCCCGGAUAAAAGUGGAGGGGGCGG [C3G C19U], with 0.265; and AACACUGCCAACGCCGGUCCCAAGCCAGGAUAAAAGUGGAGGGGGCGG [U12C C27A], with 0.577. Take AACACUGCCAAUGCCGGUCCCAAGCCCGGAUUAAAGGGGAGGGGGCGG [A32U U37G]: the self-cleavage was determined as 0.737. In the case of AACACUGCCAAUGCCGGUCCCAAGCCCGGAUUAAAGCGGAGGGGGCGG [A32U U37C], the self-cleavage was found to be 0.669. As for AACAUUGCCAAUGCCGGUCCCAAGCCCGGAUAAAAGUGGAGGGGGCGC [C5U G48C], the self-cleavage came out at 0.883. Consider AACACCGCCAAUGCCGGUCCCAAGCCCGGAUAAAAGCGGAGGGGGCGG [U6C U37C], for which the self-cleavage was determined as 0.0955. In the case of AACACUGCCAAUGCCGCUCCCAAGCCCCGAUAAAAGUGGAGGGGGCGG [G17C G28C], the self-cleavage was found to be 0.0667.

Consider AACACUGCCAAUGACGGACCCAAGCCCGGAUAAAAGUGGAGGGGGCGG [C14A U18A], for which the self-cleavage came out at 0.485. For the variant AACACUGCCAAUGCCGGUCCCAAGCCCGGAUAUAAGGGGAGGGGGCGG [A33U U37G], the self-cleavage came to 0.591. For AACACUGCCAAUGCCGGUCCCAAGCCCUGAUAAAAGUGGAGGGGGCGA [G28U G48A], the self-cleavage amounted to 0.726. Regarding AACACUGCCAAUGACGGUCCCAAGCCCGGAUGAAAGUGGAGGGGGCGG [C14A A32G], the self-cleavage was found to be 0.857. Then AACACUGCCAAUGCCUGUCCCAAGCCCGGAUAAAAGUGGAGGUGGCGG [G16U G43U], with 0.313. To AACACUGCCAAUGCCUGUCCCAAGCCCGGAUAAAAGUGGAGGAGGCGG [G16U G43A] belongs 0.203; to AACACUGCCAAUGCAGGUCCCAAGCCCGGAUAAAAGUGGAGGGGGCGU [C15A G48U], 0.573; to AACACUGCCAAUGCCGGUCCCAAUCCCGGAUAAAAGUCGAGGGGGCGG [G24U G38C], 0.103. With AACACUGCCAAUGCCGGUCCCAAGCCCGGACAAAAGUGUAGGGGGCGG [U31C G39U], the self-cleavage amounted to 0.19. Regarding AACCCUGCCAAUGCCGGUCCCAAGCCCGGAUAAAAGUGGAGGGGGCUG [A4C G47U], the self-cleavage came out at 0.121. Regarding AACACUGCCAAUGCCGGUCGCAAGCCCGGAUAAAAGUGGUGGGGGCGG [C20G A40U], the self-cleavage was found to be 0.0992. Turning to AACACUGCCAAUGCUGGUCCCAACCCCGGAUAAAAGUGGAGGGGGCGG [C15U G24C], the self-cleavage amounted to 0.115. Then AACACUGCCAGUGCCGGUCCCAAGCCCGGUUAAAAGUGGAGGGGGCGG [A11G A30U], with 0.976; and AACACUGCCAAUGCAGGUCCCAAGCCCGGAUUAAAGUGGAGGGGGCGG [C15A A32U], with 0.667.

Turning to AACACUGCCAAUCCCGGUCCCAAGCCCGGAUCAAAGUGGAGGGGGCGG [G13C A32C], the self-cleavage is 0.159.
